Experimental data from IntAct's records for PubMed 29039417.

B1: BBSome complex member BBS1 (Homo sapiens), Q8NFJ9 (parent)
chain: MAAASSSDSDACGAESNEANSKWLDAHYDPMANIHTFSACLALADLHGDGEYKLVVGDLGPGGQQPRLKVLKGPLVMTESPLPALPAAAATFLMEQHEPRTPALALASGPCVYVYKNLRPYFKFSLPQLPPNPLEQDLWNQAKEDRIDPLTLKEMLESIRETAEEPLSIQSLRFLQLELSEMEAFVNQHKSNSIKRQTVITTMTTLKKNLADEDAVSCLVLGTENKELLVLDPEAFTILAKMSLPSVPVFLEVSGQFDVEFRLAAACRNGNIYILRRDSKHPKYCIELSAQPVGLIRVHKVLVVGSTQDSLHGFTHKGKKLWTVQMPAAILTMNLLEQHSRGLQAVMAGLANGEVRIYRDKALLNVIHTPDAVTSLCFGRYGREDNTLIMTTRGGGLIIKILKRTAVFVEGGSEVGPPPAQAMKLNVPRKTRLYVDQTLREREAGTAMHRAFQTDLYLLRLRAARAYLQALESSLSPLSTTAREPLKLHAVVQGLGPTFKLTLHLQNTSTTRPVLGLLVCFLYNEALYSLPRAFFKVPLLVPGLNYPLETFVESLSNKGISDIIKVLVLREGQSAPLLSAHVNMPGSEGLAAA
partner: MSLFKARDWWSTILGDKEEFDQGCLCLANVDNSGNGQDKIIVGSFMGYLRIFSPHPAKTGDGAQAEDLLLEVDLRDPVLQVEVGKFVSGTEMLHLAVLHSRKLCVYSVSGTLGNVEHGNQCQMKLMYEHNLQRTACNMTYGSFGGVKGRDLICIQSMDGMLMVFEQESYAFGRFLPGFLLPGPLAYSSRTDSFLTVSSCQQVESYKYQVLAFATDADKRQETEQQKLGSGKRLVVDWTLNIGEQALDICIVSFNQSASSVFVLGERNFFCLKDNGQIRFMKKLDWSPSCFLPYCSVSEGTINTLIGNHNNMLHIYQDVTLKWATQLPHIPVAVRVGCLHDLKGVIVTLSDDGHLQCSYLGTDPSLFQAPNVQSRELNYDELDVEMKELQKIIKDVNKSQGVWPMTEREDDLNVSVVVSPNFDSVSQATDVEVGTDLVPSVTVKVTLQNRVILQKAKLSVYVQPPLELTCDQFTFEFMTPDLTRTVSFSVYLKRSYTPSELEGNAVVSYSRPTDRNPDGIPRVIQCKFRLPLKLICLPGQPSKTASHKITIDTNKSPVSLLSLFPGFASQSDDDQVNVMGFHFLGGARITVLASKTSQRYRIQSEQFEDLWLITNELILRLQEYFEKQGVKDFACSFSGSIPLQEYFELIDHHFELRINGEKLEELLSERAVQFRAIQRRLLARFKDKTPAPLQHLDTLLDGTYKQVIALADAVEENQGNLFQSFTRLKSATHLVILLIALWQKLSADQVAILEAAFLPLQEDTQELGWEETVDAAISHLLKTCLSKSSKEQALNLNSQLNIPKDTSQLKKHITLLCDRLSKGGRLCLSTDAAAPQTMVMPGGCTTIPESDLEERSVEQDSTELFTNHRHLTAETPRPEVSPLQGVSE

Variants of: B1
Conditions: with pthb1_human BBS9, Q3SYG4

Effect of a mutation on the interaction, with no effect:
MAAASSSDSDACGAESNEANSKWLDAHYDPMANIHTFSACLALADLHGDGEYKLVVGDLGPGGQQPRLKVLKGPLVMTESPLPALPAAAATFLMEQHEPRTPALALASGPCVYVYKNLRPYFKFSLPQLPPNPLEQDLWNQAKEDRIDPLTLKEMLESIRETAEEPLSIQSLRFLQLELSEMEAFVNQHKSNSIKRQTVITTMTTLKKNLADEDAVSCLVLGTENKELLVLDPEAFTILAKMSLPSVPVFLEVSGQFDVEFRLAAACRNGNIYILRRDSKHPKYCIELSAQPVGLIRVHKVLVVGSTQDSLHGFTHKGKKLWTVQMPAAILTMNLLEQHSRGLQAVMAGLANGEVRIYRDKALLNVIHTPDAVTSLCFGRYGREDNTLIMTTRGGGLIIKILKRTAVFVEGGSEVGPPPAQAMKLNVPRKTRLYVDQTLREREAGTAMHRAFQTDLYLLRLRAARAYLQALESSLSELSTTAREPLKLHAVVQGLGPTFKLTLHLQNTSTTRPVLGLLVCFLYNEALYSLPRAFFKVPLLVPGLNYPLETFVESLSNKGISDIIKVLVLREGQSAPLLSAHVNMPGSEGLAAA [P477E]
MAAASSSDSDACGAESNEANSKWLDAHYDPMANIHTFSACLALADLHGDGEYKLVVGDLGPGGQQPRLKVLKGPLVMTESPLPALPAAAATFLMEQHEPRTPALALASGPCVYVYKNLRPYFKFSLPQLPPNPLEQDLWNQAKEDRIDPLTLKEMLESIRETAEEPLSIQSLRFLQLELSEMEAFVNQHKSNSIKRQTVITTMTTLKKNLADEDAVSCLVLGTENKELLVLDPEAFTILAKMSLPSVPVFLEVSGQFDVEFRLAAACRNGNIYILRRDSKHPKYCIELSAQPVGLIRVHKVLVVGSTQDSLHGFTHKGKKLWTVQMPAAILTMNLLEQHSRGLQAVMAGLANGEVRIYRDKALLNVIHTPDAVTSLCFGRYGREDNTLIMTTRGGGLIIKILKRTAVFVEGGSEVGPPPAQAMKLNVPRKTRLYVDQTLREREAGTAMHRAFQTDLYLLRLRAARAYLQALESSLSKLSTTAREPLKLHAVVQGLGPTFKLTLHLQNTSTTRPVLGLLVCFLYNEALYSLPRAFFKVPLLVPGLNYPLETFVESLSNKGISDIIKVLVLREGQSAPLLSAHVNMPGSEGLAAA [P477K]
MAAASSSDSDACGAESNEANSKWLDAHYDPMANIHTFSACLALADLHGDGEYKLVVGDLGPGGQQPRLKVLKGPLVMTESPLPALPAAAATFLMEQHEPRTPALALASGPCVYVYKNLRPYFKFSLPQLPPNPLEQDLWNQAKEDRIDPLTLKEMLESIRETAEEPLSIQSLRFLQLELSEMEAFVNQHKSNSIKRQTVITTMTTLKKNLADEDAVSCLVLGTENKELLVLDPEAFTILAKMSLPSVPVFLEVSGQFDVEFRLAAACRNGNIYILRRDSKHPKYCIELSAQPVGLIRVHKVLVVGSTQDSLHGFTHKGKKLWTVQMPAAILTMNLLEQHSRGLQAVMAGLANGEVRIYRDKALLNVIHTPDAVTSLCFGRYGREDNTLIMTTRGGGLIIKILKRTAVFVEGGSEVGPPPAQAMKLNVPRKTRLYVDQTLREREAGTAMHRAFQTDLYLLRLRAARAYLQALESSLSPASTTAREPLKLHAVVQGLGPTFKLTLHLQNTSTTRPVLGLLVCFLYNEALYSLPRAFFKVPLLVPGLNYPLETFVESLSNKGISDIIKVLVLREGQSAPLLSAHVNMPGSEGLAAA [L478A]
MAAASSSDSDACGAESNEANSKWLDAHYDPMANIHTFSACLALADLHGDGEYKLVVGDLGPGGQQPRLKVLKGPLVMTESPLPALPAAAATFLMEQHEPRTPALALASGPCVYVYKNLRPYFKFSLPQLPPNPLEQDLWNQAKEDRIDPLTLKEMLESIRETAEEPLSIQSLRFLQLELSEMEAFVNQHKSNSIKRQTVITTMTTLKKNLADEDAVSCLVLGTENKELLVLDPEAFTILAKMSLPSVPVFLEVSGQFDVEFRLAAACRNGNIYILRRDSKHPKYCIELSAQPVGLIRVHKVLVVGSTQDSLHGFTHKGKKLWTVQMPAAILTMNLLEQHSRGLQAVMAGLANGEVRIYRDKALLNVIHTPDAVTSLCFGRYGREDNTLIMTTRGGGLIIKILKRTAVFVEGGSEVGPPPAQAMKLNVPRKTRLYVDQTLREREAGTAMHRAFQTDLYLLRLRAARAYLQALESSLSPESTTAREPLKLHAVVQGLGPTFKLTLHLQNTSTTRPVLGLLVCFLYNEALYSLPRAFFKVPLLVPGLNYPLETFVESLSNKGISDIIKVLVLREGQSAPLLSAHVNMPGSEGLAAA [L478E]
MAAASSSDSDACGAESNEANSKWLDAHYDPMANIHTFSACLALADLHGDGEYKLVVGDLGPGGQQPRLKVLKGPLVMTESPLPALPAAAATFLMEQHEPRTPALALASGPCVYVYKNLRPYFKFSLPQLPPNPLEQDLWNQAKEDRIDPLTLKEMLESIRETAEEPLSIQSLRFLQLELSEMEAFVNQHKSNSIKRQTVITTMTTLKKNLADEDAVSCLVLGTENKELLVLDPEAFTILAKMSLPSVPVFLEVSGQFDVEFRLAAACRNGNIYILRRDSKHPKYCIELSAQPVGLIRVHKVLVVGSTQDSLHGFTHKGKKLWTVQMPAAILTMNLLEQHSRGLQAVMAGLANGEVRIYRDKALLNVIHTPDAVTSLCFGRYGREDNTLIMTTRGGGLIIKILKRTAVFVEGGSEVGPPPAQAMKLNVPRKTRLYVDQTLREREAGTAMHRAFQTDLYLLRLRAARAYLQALESSLSPKSTTAREPLKLHAVVQGLGPTFKLTLHLQNTSTTRPVLGLLVCFLYNEALYSLPRAFFKVPLLVPGLNYPLETFVESLSNKGISDIIKVLVLREGQSAPLLSAHVNMPGSEGLAAA [L478K]
MAAASSSDSDACGAESNEANSKWLDAHYDPMANIHTFSACLALADLHGDGEYKLVVGDLGPGGQQPRLKVLKGPLVMTESPLPALPAAAATFLMEQHEPRTPALALASGPCVYVYKNLRPYFKFSLPQLPPNPLEQDLWNQAKEDRIDPLTLKEMLESIRETAEEPLSIQSLRFLQLELSEMEAFVNQHKSNSIKRQTVITTMTTLKKNLADEDAVSCLVLGTENKELLVLDPEAFTILAKMSLPSVPVFLEVSGQFDVEFRLAAACRNGNIYILRRDSKHPKYCIELSAQPVGLIRVHKVLVVGSTQDSLHGFTHKGKKLWTVQMPAAILTMNLLEQHSRGLQAVMAGLANGEVRIYRDKALLNVIHTPDAVTSLCFGRYGREDNTLIMTTRGGGLIIKILKRTAVFVEGGSEVGPPPAQAMKLNVPRKTRLYVDQTLREREAGTAMHRAFQTDLYLLRLRAARAYLQALESSLSPLATTAREPLKLHAVVQGLGPTFKLTLHLQNTSTTRPVLGLLVCFLYNEALYSLPRAFFKVPLLVPGLNYPLETFVESLSNKGISDIIKVLVLREGQSAPLLSAHVNMPGSEGLAAA [S479A]
MAAASSSDSDACGAESNEANSKWLDAHYDPMANIHTFSACLALADLHGDGEYKLVVGDLGPGGQQPRLKVLKGPLVMTESPLPALPAAAATFLMEQHEPRTPALALASGPCVYVYKNLRPYFKFSLPQLPPNPLEQDLWNQAKEDRIDPLTLKEMLESIRETAEEPLSIQSLRFLQLELSEMEAFVNQHKSNSIKRQTVITTMTTLKKNLADEDAVSCLVLGTENKELLVLDPEAFTILAKMSLPSVPVFLEVSGQFDVEFRLAAACRNGNIYILRRDSKHPKYCIELSAQPVGLIRVHKVLVVGSTQDSLHGFTHKGKKLWTVQMPAAILTMNLLEQHSRGLQAVMAGLANGEVRIYRDKALLNVIHTPDAVTSLCFGRYGREDNTLIMTTRGGGLIIKILKRTAVFVEGGSEVGPPPAQAMKLNVPRKTRLYVDQTLREREAGTAMHRAFQTDLYLLRLRAARAYLQALESSLSPLETTAREPLKLHAVVQGLGPTFKLTLHLQNTSTTRPVLGLLVCFLYNEALYSLPRAFFKVPLLVPGLNYPLETFVESLSNKGISDIIKVLVLREGQSAPLLSAHVNMPGSEGLAAA [S479E]
MAAASSSDSDACGAESNEANSKWLDAHYDPMANIHTFSACLALADLHGDGEYKLVVGDLGPGGQQPRLKVLKGPLVMTESPLPALPAAAATFLMEQHEPRTPALALASGPCVYVYKNLRPYFKFSLPQLPPNPLEQDLWNQAKEDRIDPLTLKEMLESIRETAEEPLSIQSLRFLQLELSEMEAFVNQHKSNSIKRQTVITTMTTLKKNLADEDAVSCLVLGTENKELLVLDPEAFTILAKMSLPSVPVFLEVSGQFDVEFRLAAACRNGNIYILRRDSKHPKYCIELSAQPVGLIRVHKVLVVGSTQDSLHGFTHKGKKLWTVQMPAAILTMNLLEQHSRGLQAVMAGLANGEVRIYRDKALLNVIHTPDAVTSLCFGRYGREDNTLIMTTRGGGLIIKILKRTAVFVEGGSEVGPPPAQAMKLNVPRKTRLYVDQTLREREAGTAMHRAFQTDLYLLRLRAARAYLQALESSLSPLKTTAREPLKLHAVVQGLGPTFKLTLHLQNTSTTRPVLGLLVCFLYNEALYSLPRAFFKVPLLVPGLNYPLETFVESLSNKGISDIIKVLVLREGQSAPLLSAHVNMPGSEGLAAA [S479K]
MAAASSSDSDACGAESNEANSKWLDAHYDPMANIHTFSACLALADLHGDGEYKLVVGDLGPGGQQPRLKVLKGPLVMTESPLPALPAAAATFLMEQHEPRTPALALASGPCVYVYKNLRPYFKFSLPQLPPNPLEQDLWNQAKEDRIDPLTLKEMLESIRETAEEPLSIQSLRFLQLELSEMEAFVNQHKSNSIKRQTVITTMTTLKKNLADEDAVSCLVLGTENKELLVLDPEAFTILAKMSLPSVPVFLEVSGQFDVEFRLAAACRNGNIYILRRDSKHPKYCIELSAQPVGLIRVHKVLVVGSTQDSLHGFTHKGKKLWTVQMPAAILTMNLLEQHSRGLQAVMAGLANGEVRIYRDKALLNVIHTPDAVTSLCFGRYGREDNTLIMTTRGGGLIIKILKRTAVFVEGGSEVGPPPAQAMKLNVPRKTRLYVDQTLREREAGTAMHRAFQTDLYLLRLRAARAYLQALESSLSPLSATAREPLKLHAVVQGLGPTFKLTLHLQNTSTTRPVLGLLVCFLYNEALYSLPRAFFKVPLLVPGLNYPLETFVESLSNKGISDIIKVLVLREGQSAPLLSAHVNMPGSEGLAAA [T480A]
MAAASSSDSDACGAESNEANSKWLDAHYDPMANIHTFSACLALADLHGDGEYKLVVGDLGPGGQQPRLKVLKGPLVMTESPLPALPAAAATFLMEQHEPRTPALALASGPCVYVYKNLRPYFKFSLPQLPPNPLEQDLWNQAKEDRIDPLTLKEMLESIRETAEEPLSIQSLRFLQLELSEMEAFVNQHKSNSIKRQTVITTMTTLKKNLADEDAVSCLVLGTENKELLVLDPEAFTILAKMSLPSVPVFLEVSGQFDVEFRLAAACRNGNIYILRRDSKHPKYCIELSAQPVGLIRVHKVLVVGSTQDSLHGFTHKGKKLWTVQMPAAILTMNLLEQHSRGLQAVMAGLANGEVRIYRDKALLNVIHTPDAVTSLCFGRYGREDNTLIMTTRGGGLIIKILKRTAVFVEGGSEVGPPPAQAMKLNVPRKTRLYVDQTLREREAGTAMHRAFQTDLYLLRLRAARAYLQALESSLSPLSETAREPLKLHAVVQGLGPTFKLTLHLQNTSTTRPVLGLLVCFLYNEALYSLPRAFFKVPLLVPGLNYPLETFVESLSNKGISDIIKVLVLREGQSAPLLSAHVNMPGSEGLAAA [T480E]
